Experimental findings from patent US20120284877 are described below.

Residue numbers refer to the chain shown, from its start.

Common to all, as to test: cell_activity
Holding throughout (details): A. thaliana GUS recombination

For series [1], the target named is T1, NLS-I-SceI C term mod #1-AlcR(1-60) (VC-SAH128-3, SAH126-1) (Saccharomyces cerevisiae / Aspergillus nidulans) (UniProt P03882).
T1 sequence: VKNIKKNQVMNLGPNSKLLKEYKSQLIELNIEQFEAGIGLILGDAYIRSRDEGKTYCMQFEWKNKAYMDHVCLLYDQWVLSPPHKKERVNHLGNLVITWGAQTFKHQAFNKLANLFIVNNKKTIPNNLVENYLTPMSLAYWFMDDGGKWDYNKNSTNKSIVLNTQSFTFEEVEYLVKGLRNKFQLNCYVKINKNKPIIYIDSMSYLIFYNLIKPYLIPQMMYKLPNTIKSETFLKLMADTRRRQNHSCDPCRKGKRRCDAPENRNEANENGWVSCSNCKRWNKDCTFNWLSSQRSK

The target of series [2] is T2, NLS-I-SceI C term mod #2-AlcR(1-60) (VC-SAH129-1, SAH127-1) (Saccharomyces cerevisiae / Aspergillus nidulans) (UniProt P03882).
T2 sequence: T1 sequence with T227A, K229A, S230N, E231Q, T232A

The target of series [3] is T3, NLS-I-SceI-AlcR(1-60) (VC-SAH48-8, VC-SAH91-1) (Saccharomyces cerevisiae / Aspergillus nidulans) (UniProt P03882).
T3 sequence: T1 sequence with K229S

For the sequence “AGCGGCCGCCTAGGGATCCGACAGGTTACGGGGCGGCGACCTCGCGGGTTTTCGCTATTTATGAAAATTTTCCGGTTTAAGGCGTTTCCGTTCTTCTTCGTCATAACTTAATGTTTTTATTTAAAATACCCTCTGAAAAGAAAGGAAACGACAGGTGCATTACCCTGTTATCCCTAGCGGATCCGCACGTTATCCCTAGCGGATCCGCACGTTATCCCTAT (double strand) [combined target site VC-SAH55-22 (#55)]”, the activity (% blue plants) in series [1] worked out at 100; in series [2], 76; in series [3], 49.
